Experimental data published in the supplement of paper PMC9732359.
± gives the uncertainty stated by the source.

Assay: protein stability index of a GFP-peptide fusion (yeast GPS) (PSI 1-4); higher = more stable; sorted into four equal gates, so the index is relative within each strain
How it was run: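 Sequencing reads from sorted gates were used to score each peptide. The library consisted of tiled 17-residue yeast protein peptides fused downstream of GFP on a Cherry-expressing plasmid, pooled and carried in yeast. Mid-log cultures in leucine-free medium were split into four equal gates by GFP/Cherry ratio, and each gate's plasmids were PCR-amplified and Illumina-sequenced. The protein stability index adds up, over all gates, the read frequency multiplied by the gate number.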

Sequence	protein stability index (doa10∆)	protein stability index (pdr5∆)	protein stability index (san1∆)	protein stability index (ubr1∆)
SVLYQLSTSAFMEIVLE [YML031W/NDC1]	2.17 ± 0.047	2.07 ± 0.055	2.07 ± 0.068	2.67 ± 0.058
ALKGPVRDKLDEYQAAV [DPB4]	3.31 ± 0.072	3.29 ± 0.05	3.2 ± 0.052	3.17 ± 0.064
FSIFNYFKMFPASKHDK [RPC34]	3.28 ± 0.19	1.34 ± 0.12		2.44 ± 0.2
DAITVKDVKAWAGKRLW [COR1]	3.01 ± 0.069	2.8 ± 0.067	2.87 ± 0.063	2.37 ± 0.044
IRRYCDVVAHRQLAGAI [DIS3]	1.91 ± 0.077	2.2 ± 0.065	1.99 ± 0.097	2.18 ± 0.1
VLFITPDIVGHEFTLSF [BRR2]	1.87 ± 0.049	2.29 ± 0.049	2.18 ± 0.055	2.3 ± 0.04
QQYVAAGDLRALDTVTN [FAS1]	2.88 ± 0.087	2.87 ± 0.081	2.92 ± 0.085	2.79 ± 0.13
PYLPKHYLVLLVAKFLY [YJR042W/NUP85]	1.3 ± 0.084	1.28 ± 0.06	1.16 ± 0.15	1.21 ± 0.052
FNQRDGEHEKSNILLNS [MED1]	2.4 ± 0.087	1.96 ± 0.11	2.99 ± 0.17	3.21 ± 0.11
AISLGLLKGSIDQVNEL [RPN9]	3.36 ± 0.098	3.08 ± 0.066	3.16 ± 0.095	3.21 ± 0.039
GMLAMASLHSKELTRIP [MED4]	2.18 ± 0.14	2.37 ± 0.12	2.27 ± 0.2	1.88 ± 0.19
DLTQLLEKERSILDDIK [SMC4]	3.22 ± 0.14	2.98 ± 0.08	2.66 ± 0.13	3.16 ± 0.043
KEYISRLWHTLKYYQDL [SNF5]	1.47 ± 0.068	1.55 ± 0.06	1.42 ± 0.1	1.58 ± 0.054
TSLLNKVLKSGSGVDSS [RRP42]	2.87 ± 0.12	2.88 ± 0.077	2.6 ± 0.13	3.21 ± 0.12
TRSAKKMVIAELLPHYP [YJR042W/NUP85]	2.83 ± 0.089	2.81 ± 0.087	2.89 ± 0.052	3 ± 0.074
YGRQELADDLITKMLAS [RPN2]		2.92 ± 0.29		3 ± 0.079
ATKAINGCIFTLNPKTG [PRP8]	2.79 ± 0.095	2.73 ± 0.076	2.71 ± 0.059	2.88 ± 0.062
SSVKCFGPIKVELPTKE [FAS1]	2.5 ± 0.069	1.98 ± 0.05	2.56 ± 0.057	1.97 ± 0.057
SNSNVTNPSSIFGGAGG [YOR098C/NUP1]	2.89 ± 0.049	2.77 ± 0.05	2.29 ± 0.052	2.87 ± 0.045
IDKITDGLGNVVDFTSL [YMR129W/POM152]	3.41 ± 0.11	3.53 ± 0.13	3.37 ± 0.061	3.45 ± 0.1
MHDSNLQNNSDSESDSD [SKP1]	2.94 ± 0.11	3.18 ± 0.078	3.06 ± 0.056	3.02 ± 0.068
LIENCKQVLDVDPVYKD [FAS2]	3.14 ± 0.17	3.21 ± 0.12	3.33 ± 0.076	3.37 ± 0.068
WVAPQESSHEQEEFVQF [ECM29]	3.26 ± 0.15	3.42 ± 0.13		
YQKLFSQFINDHILFTK [SRB8]	1.94 ± 0.044	2.06 ± 0.048	2.04 ± 0.065	2 ± 0.04
NNNNSTRPQMPSRTRET [GRR1]	2.937 ± 0.027	3.108 ± 0.027	2.949 ± 0.024	3.033 ± 0.021
SEAFPSLQSCSVAVHFQ [SMC4]	1.77 ± 0.1	2.09 ± 0.082	2.39 ± 0.095	1.79 ± 0.056
PQEETITFLIEKAKEMI [ECM29]	3.03 ± 0.092	3.18 ± 0.13	2.95 ± 0.069	3.16 ± 0.075
